Source: the RNAGym collection of RNA variant scans (doi:10.1073/pnas.2313332121)
Fewer inactive variants are shown than the library holds.

B1: TPR 5TU (parent)
chain: GGAUCUUCUCGAUCUAACAAAAAAGACAAAUCUGCCACAAAGCUUGAGAGCAUCUUCGGAUGCAGAGGCGGCAGCCUUCGGUGGCGCGAUAGCGCCAACGUUCUCAACUAUGACACGCAAAACGCGUGCUCCGUUGAAUGGAGUUUAUCAUG

Variants of: B1
Test: polymerase ribozyme fitness, log enrichment relative to wild type (log ratio); higher = more active; in vitro selection for triplet polymerase activity
Method in brief: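 In triplicate, a single round of in vitro selection was run on each mutant library, PCR-built and transcribed, covering one subunit of a heterodimeric triplet polymerase ribozyme. Frozen incubation at −7 °C followed annealing with a biotinylated primer, partner subunit and triplets, and extended constructs were then gel-excised, streptavidin-captured and taken through RT-PCR. Fitness is the logarithm of genotype enrichment over wild-type enrichment, from inverse-variance-weighted replicate averages of Illumina-sequenced inputs and outputs. […] only genotypes with ≥10 input reads and ≥1 read per output were kept.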

| Variant | polymerase ribozyme fitness (log ratio) |
| --- | --- |
| A12U C27G A41G C87U A91G G140U | ≤ -4.2 |
| U4A A16U A17U A30C A39G A49U C87G A89C G133C U139C | ≤ -4.2 |
| C14G G50U C87U C96A | -4.12 |
| A28C C54A G100A | ≤ -4.2 |
| A41U U56A | -0.813 |
| U31G C35A A47C G74U C87G A142C | ≤ -4.2 |
| C43A C63U C69A G94A C123A U134A G141C | ≤ -4.2 |
| A49C C54U G84A C103U C116G U130G | ≤ -4.2 |
| A29U C38A G50C A52C A66U G74C C108G C132A | ≤ -4.2 |
| A21G G25U U56A C85U G94U C123U | -2.71 |
| U7G C75G G86C | ≤ -4.2 |
| A19C C27G A28C G58C G59C A64C C85U | ≤ -4.2 |
| A12C A40C C87A C93U G94C A110G A142U | ≤ -4.2 |
| A12G A19C A29U C129G | ≤ -4.2 |
| A60U A97C U104C U134G U144C | -4.05 |
| U4G C54G G80C G92U A115C | ≤ -4.2 |
| G11U A28C A49C C51A U53A C57U C95A G140A | ≤ -4.2 |
| A19U C85U A107G | ≤ -4.2 |
| A20U G46U A98G C99U | -3.31 |
| G25U G58U G84A | -2.21 |
| A26C C27G A52C G80U A89G | ≤ -4.2 |

| Variant | polymerase ribozyme fitness (log ratio) |
| --- | --- |
| C5A C85A | -1.31 |
| A40C G42C G80U | ≤ -4.2 |
| C51U A142C | -0.909 |
| A37C U45G A47C G59A C79G G81C U82C C95U | -4.18 |
| C38U G50U G80C C85U | ≤ -4.2 |
| G62U G92C C96A A98U | -2.71 |
| U31C G92A C118G | -2.66 |
| C38A C95U | -0.419 |
| A16U A20C U31G G42C C87G G88C | ≤ -4.2 |
| A21U A24G U61A G81U | ≤ -4.2 |
| G46U G83C G92U | -2.34 |
| U55C G88A C96U | ≤ -4.2 |
| A73C G92U C116G U144C | ≤ -4.2 |
| C14U G94A C108U A137U | -4.03 |
| A20C A41U G50A U90A C93U | ≤ -4.2 |
| A19U C57G A121G A150G | -1.93 |
| A91G G92U G140A | ≤ -4.2 |
| A29U G46C G50C C95G C114G | ≤ -4.2 |
| C96U U134C | -0.883 |
| A39U U55G G67C G86U A115C | ≤ -4.2 |
| A52C C103U | -0.611 |

| Variant | polymerase ribozyme fitness (log ratio) |
| --- | --- |
| C57U A73C | -1.36 |
| A52U C93A U109C U111G G140C G152A | ≤ -4.2 |
| U6G A73C | -2.87 |
| C27U A37C G50U C95A | -2.6 |
| U82G G92C | -1.23 |
| A16C A21C U61A | -1.52 |
| C87A C99U | ≤ -4.2 |
| A40U A64G C75U A97G | ≤ -4.2 |
| U6C A47U | -0.576 |
| A91C U109C | ≤ -4.2 |
| A16C C54U C85A | -3.31 |
| G25U A52U U145C | -3.91 |
| A16G A39G G68A C95A C103G C108U U111G A115G C123U | ≤ -4.2 |
| A30U U33C C36G U56A C85U C114G | -3.84 |
| C96U G136U | -2.74 |
| G94A C118G | -1.61 |
| G34C G83A A91U U102C G112U A113U A142C | ≤ -4.2 |
| C32U C116G | -2.9 |
| G67C C125G | ≤ -4.2 |
| C14A A17C U31A C57U C96G | -3.28 |
| G50C G84U | -3.79 |

| Variant | polymerase ribozyme fitness (log ratio) |
| --- | --- |
| C14G U53A G94A G124U | -3.37 |
| A22G A37C G50C A64G G65C G88A A110G | ≤ -4.2 |
| A26U C54G U148A | ≤ -4.2 |
| U55G C96U C105U G143A | -0.651 |
| A37C A41C U56A G67C C85A G126A C131A G141A | ≤ -4.2 |
| U31G G68A C75G C105G C131G U139G | ≤ -4.2 |
| A28U G50C | ≤ -4.2 |
| C10G C14G G25C G59U C95U A110G | ≤ -4.2 |
| A16G A30U G81C C95U A110G | ≤ -4.2 |
| G48A U55G C85G C87G C149G | ≤ -4.2 |
| A113G A122U G136A U148A | -3.76 |
| U77A A113U | ≤ -4.2 |
| U13A A23U U31A A37C G84U C125A G140A G152U | ≤ -4.2 |
| U55A C57A C93U G126U | -0.627 |
| A19U A22G C27G A30U G88C C95U | ≤ -4.2 |
| U4C G50C G62A G84A G92C | ≤ -4.2 |
| U45A C118A | -3.79 |
| U55A C93G | -3.83 |
| A110U C123U A142C | ≤ -4.2 |
| A19U U55A C76G C93A | ≤ -4.2 |
